The values below come from US20150098945A1 (Daiichi Sankyo, published 2015).

For experiment [1], the target named is T1, rat ROBO4 (pCI-raROBO4-transfected HEK293 cells) (rat, UniProt Q80W87 38-949 at identity 0.93)).
T1 chain: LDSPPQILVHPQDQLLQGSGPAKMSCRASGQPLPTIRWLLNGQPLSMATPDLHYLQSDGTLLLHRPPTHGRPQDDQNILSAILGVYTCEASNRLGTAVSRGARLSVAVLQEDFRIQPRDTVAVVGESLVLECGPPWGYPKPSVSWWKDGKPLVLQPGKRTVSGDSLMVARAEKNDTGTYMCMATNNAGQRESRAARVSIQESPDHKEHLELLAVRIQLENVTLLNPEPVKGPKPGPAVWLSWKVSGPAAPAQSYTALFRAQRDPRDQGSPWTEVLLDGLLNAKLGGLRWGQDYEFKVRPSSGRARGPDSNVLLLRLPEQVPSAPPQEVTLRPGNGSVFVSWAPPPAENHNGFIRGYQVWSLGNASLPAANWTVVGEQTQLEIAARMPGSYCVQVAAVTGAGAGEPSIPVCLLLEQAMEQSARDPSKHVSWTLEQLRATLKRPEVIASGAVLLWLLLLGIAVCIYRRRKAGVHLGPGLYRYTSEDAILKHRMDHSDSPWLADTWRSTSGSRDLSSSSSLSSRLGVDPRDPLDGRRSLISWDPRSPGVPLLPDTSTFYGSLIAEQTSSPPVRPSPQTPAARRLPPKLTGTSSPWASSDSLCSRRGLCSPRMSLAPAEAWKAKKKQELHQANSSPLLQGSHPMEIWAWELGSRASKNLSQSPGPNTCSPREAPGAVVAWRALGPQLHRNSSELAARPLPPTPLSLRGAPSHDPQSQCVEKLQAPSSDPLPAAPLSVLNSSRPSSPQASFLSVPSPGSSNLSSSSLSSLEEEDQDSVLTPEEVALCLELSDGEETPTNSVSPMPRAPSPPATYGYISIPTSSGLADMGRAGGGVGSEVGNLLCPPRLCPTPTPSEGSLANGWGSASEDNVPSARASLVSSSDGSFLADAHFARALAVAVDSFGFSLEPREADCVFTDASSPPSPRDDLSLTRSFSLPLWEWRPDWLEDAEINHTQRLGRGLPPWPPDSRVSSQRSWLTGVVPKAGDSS
Description: flow cytometry on transfected HEK293 cells. (In general: In flow cytometry, cells or beads pass a laser one at a time.)

The target in experiment [2] is T2, N-terminal FLAG-tagged cynomolgus monkey ROBO4, cynoROBO4-2 (pCI-FLAG-cynoROBO4-2) (cynomolgus monkey, UniProt Q8WZ75 28-1007 (human entry)).
T2 chain: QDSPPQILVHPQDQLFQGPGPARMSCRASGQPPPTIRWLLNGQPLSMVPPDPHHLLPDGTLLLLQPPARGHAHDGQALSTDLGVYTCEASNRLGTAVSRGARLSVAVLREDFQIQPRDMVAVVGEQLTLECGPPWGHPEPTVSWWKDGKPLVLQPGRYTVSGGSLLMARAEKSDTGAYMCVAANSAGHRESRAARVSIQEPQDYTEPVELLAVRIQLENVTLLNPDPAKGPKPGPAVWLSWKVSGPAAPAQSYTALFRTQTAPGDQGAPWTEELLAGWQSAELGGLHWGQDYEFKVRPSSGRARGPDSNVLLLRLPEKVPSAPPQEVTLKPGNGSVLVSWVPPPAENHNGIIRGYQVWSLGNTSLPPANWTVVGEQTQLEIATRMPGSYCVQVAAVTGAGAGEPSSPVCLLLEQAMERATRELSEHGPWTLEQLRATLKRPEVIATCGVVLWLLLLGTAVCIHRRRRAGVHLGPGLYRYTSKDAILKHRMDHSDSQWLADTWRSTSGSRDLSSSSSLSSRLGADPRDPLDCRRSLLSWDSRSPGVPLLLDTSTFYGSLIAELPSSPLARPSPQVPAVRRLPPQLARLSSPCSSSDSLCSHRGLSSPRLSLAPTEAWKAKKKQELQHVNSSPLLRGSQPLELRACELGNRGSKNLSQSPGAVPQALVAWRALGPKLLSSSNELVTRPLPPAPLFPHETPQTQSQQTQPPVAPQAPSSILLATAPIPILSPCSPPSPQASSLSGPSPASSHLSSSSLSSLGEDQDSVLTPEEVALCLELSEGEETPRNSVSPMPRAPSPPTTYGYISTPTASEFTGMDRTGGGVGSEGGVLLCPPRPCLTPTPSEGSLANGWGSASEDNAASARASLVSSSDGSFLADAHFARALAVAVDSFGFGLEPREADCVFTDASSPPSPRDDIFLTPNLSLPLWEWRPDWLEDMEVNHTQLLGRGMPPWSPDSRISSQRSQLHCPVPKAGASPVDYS
Description: flow cytometry on transfected HEK293 cells.

B1: humanized MAb1 antibody H-1140 (antibody, human IgG2, kappa, V domains shown)
VH: EVQLVESGGGLVQPGGSLRLSCAASGFTFSTYAMSWVRQAPGKGLEWVATISQGGTYTYYPDSVKGRFTISRDNAKNTLYLQMNSLRAEDTAVYYCARLIYYDYLDYWGQGTLVTVSS
VL: DIVMTQSPLSLPVTLGEPASISCRSSQSLENSNGNTYLNWYLQKPGQSPQLLIYRVSNRFSGVPDRFSGSGSGTDFTLKISRVEAEDVGVYYCLQVTHVPWTFGPGTKVDIKR
notes: Human IgG2 / kappa constant regions; also called hMAb1-H2-type heavy chain + hMAb1-L1-type light chain
As to B1, the binding result in experiment [1] is listed as “no binding (tested: 10 µg/mL (method of 4)-3-2))”; in experiment [2], “binds”.
